Reference: a protein production outcome set (Wang et al. 2014)

Test: label from the status in PepcDB records

Row | Sequence | protein production
1 | MTKKVMIKGDIVDDQTAGFYQFFGMPAVSPSGVADILNDDSGDDDDDGDDEALEVDIASNGGDVFAASEIYTMLKNYAGNVTVNIQGLAASAASVIAMAGDHINISPTAQIMIHKAWSQPAGNADDLEHEASVLNGIDQSIASAYEAKTGMDQADLLQLMANETWLTASDAVDKGFADEIMFANDQQLQPVNAISHIPPKSAVNKLMNLIYKADKDKAKPSKKENTTNGQSAELRNSKLAILFEKNQKEAN | failed
2 | MTKPLILASQSPRRKELLDLLQLPYSIIVSEVEEKLNRNFSPEENVQWLAKQKAKAVADLHPHAIVIGADTMVCLDGECLGKPQDQEEAASMLRRLSGRSHSVITAVSIQAENHSETFYDKTEVAFWSLSEEEIWTYIETKEPMDKAGAYGIQGRGALFVKKIDGDYYSVMGLPISKTMRALRHFDIRA | not failed
3 | MTKPMIQIALDQTNLTDAVAVASNVASYVDVIEVGTILAFAEGMKAVSTLRHNHPNHILVCDMKTTDGGAILSRMAFEAGADWITVSAAAHIATIAACKKVADELNGEIQIEIYGNWTMQDAKAWVDLGITQAIYHRSRDAELAGIGWTTDDLDKMRQLSALGIELSITGGIVPEDIYLFEGIKTKTFIAGRALAGAEGQQTAAALREQIDRFWP | not failed
4 | MTKPSRPDAPGDGRPRRLPGVARCRRDAAGHPPAHRLRWLQLLIWLVPMLAALVSIGLVAGQVRGHGPAITLGFQDGEGIEPGKTPVRYNDVDIGMVTAVRLSTDLSRVLVTVQLNQEAADFATHGTRFWIVRPRAGMSGASGLGTLLSGTYIGADSGGSHEPETQFTGLENPPVVSLRQQGARFVLRGPSLGSVETGSPVYYRHVEVGQVTGTALDKDGAGVTIDVFIEAPYHRYVGRDTQWRHASGLGLRLDAAGLRVNAESFQTMLLGGIAFQPSPGQPAGDAVPDGTVFGLQSGDLDAADGPDGKPSTVVMHFDQSLHGLSVGAAVDFRGVQLGEVTNVGVAFDPKTHTFVMPVTLNLYPDRLGQAFRASSEYGDAAAGKALLRTLVARGLRGQLRTGNLLTNQLYVALDMFPNAPPVQLDLNGTLIALPTIPNTLDDLQAQVADLAKTLDRVPLDQLGTHLGQRLDNARRLFALTDAQLAPQARATLAAARQAFDAAQAIAQSPLLRPADLSRVREQLGQTLRALDTLTDTVAQHPESLVWGPAVDTRTAQSP | failed
5 | MTKQFHCVTVGNPNAGKSTLFNALTGANQQVGNWSGVTVEKKTGHFTLNGADVYLTDLPGIYDLLPAGNSCDCSLDEQIAQQYLAEQRVDGIINLVDATNIERHLYLTAQLRELSIPMVVVLNKIDAAIKRGICVDLTKMSQELGCPVIGVCSRDPADVAKVQAQVLDLLQGRVSEAPLLLDYDKQIEAGVQLLCRKDPNLSRGRALAMLGNGSGCGSCKNAQLQDEVNTCTQQIAQQGHDIEVMVATTRFNFVERVFQSSVKADGFLTLSDKLDKLVLHPVLGIPVFLFVMYLMFMFSINIGSAFIDFFDVFAGALLVDHFGALLTNIGAPAWVVTILAGGVGQGIQTVSTFIPVIAALFLGLSILESSGYMARAAFVVDGLMRRIGLPGKAFVPMIVGFGCSVPAIMATRTLGSERERIVTGMMAPFMSCGARLPVYALFAAAFFPDSGQNLVFLLYVIGIFAAIGTGLLLRSTLLPGTSSAVVMELPSYELPKFKAVMVRTGKRTKSFILGAGKTIVLVVTLLNFINAIGVDGSFGHEDSQASLLSVASQKVTPIFAPMGIEQDNWPATVGIITGIFAKEAVVGTLNSLYTNATPEGSELTPLADSFNEALATIPANLFGLDLEDPLKLSVGDVSNTEVAAETQGVATSTFSALQSGFTTKVAAFSYLLFILLYTPCVAAMGALVNEFGTRWATFAATWTFALAYGSATVVYQAATFAAHPLQSSLWIGFFLVALVMFYLWLKRKGRRTQQIIPGVRIITE | failed
6 | MTKTALVLGTVATLAVASVAAPAPAEARNGIGPFIGGLAAGALIAGVASNAYAYGPGYGYYGGGPYYGGGPYYGYAPRYVGYYGGPAYYGGGYGWGGPRYYRPRPVYYGYRSYYRPYRGGYYGAPVIRAGYGPGWGGHRHWHHHRHW | failed
7 | MTKTFKTLDDFLGTHFIYTYDNGWEYEWYAKNDHTVDYRIHGGMVAGRWVTDQKADIVMLTEGIYKISWTEPTGTDVALDFMPNEKKLHGTIFFPKWVEEHPEITVTYQNEHIDLMEQSREKYATYPKLVVPEFANITYMGDAGQNNEDVISEAPYKEMPNDIRNGKYFDQNYHRLNK | not failed
8 | MTKTLVIIAHPDMARSRVNAAWAEALRRAGDITLRDLSALYPDGMIDGAVERSLLEAHDRIILQFPLTWYSCPPILSAWQIAILTRGWAYGPGGRALRLKTLGVALSTGSNGRDYQPDGRYGRTLEDVTVPFELMARHTGMHYLPPFTLTGVRECDDAAVAASARAYLDHVRTAKPRILASGRDDDRARTVYPLEAGAR | failed
9 | MTKVNPYAAGARGLCPHCGEGYLFDGFLKVAPRCEACGFELGKHETGDGAATFVILIAGAICAFGALFSMFAWNWPVWVSLVVWLPAVVAISLGLMRPAKGLMVAAQIAQKASEAGRDHV | failed
10 | MTLAALCQGVLERLDPRQPGRQLVALSGAPGSGKSTLSNPLAAALSAQGLPAEVVPMDGFHLDNRLLEPRGLLPRKGAPETFDFEGFQRLCHALKHQERVIYPLFDRARDIAIAGAAEVGPECRVAIIEGNYLLFDAPGWRDLTAIWDVSIRLEVPMADLEARLVQRWLDHGLNHDAAVARAQGNDLANARAIEAARLPADLTWPQA | not failed
11 | MTLATRTVILPGGLQATLVHQPQADRAAALARVAAGSHHEPSRFPGLAHLLEHLLFYGGERYQDDDRLMGWVQRQGGSVNATTLARHSAFFFEVAADALADGVARLQEMLQAPLLLREDIQREVAVIDAEYRLIQQHEPSRREAAVRHAASAPAAFRRFQVGSADALAGDLAALQAALGDFHRTHYVARRMQLWLQGPQSLEALGELAARFAAGLAAGEPPPPAPPLRLGEFTALQLAVSSQPALWRCPLIALSDNVTLLREFLLDEAPGSLMASLRQRRLAGDVALNWLYQDRYLGWLALVFASDRPEEVDRQITHWLQALQQTTPEQQQHYYQLSRRRFQALSPLDQLRQRAFGFAPGAPPAGFADFCAALQAAPSVSLACQTVSPGEPVATQGFSLPLSRWRRRPESDPALAFAFYPQAAGDLVAKCPEKAAPLLHLPLPEEPPRLLLRPPFYCSPDQAEGLARGEQLRPLLAALRHAGGHGEWHLFDGSWQLTLQLPEPGRRPEAILQAILRQLALPVASLTPPPESIAIRHLMAQLPERLGTSGHQKGWLAALAGGSAEDAQWVARQLSLITAPVNPPMPAPAPCRRGVERLVYPGGDTALLVFIPLPDGASLAALRLLAQHCEPLFFQRLRVEQQIGYVVSCRYQRVADRDGLLMALQSPDRRAGELLRCGKDFLRQLAPMDEATFRPLQQRLAAQNRASRPPEARALSALRQEYGLPELTPQAVDALRVAEVADLAREMTRRRRRWQVLFTTGD | failed
12 | MTLDPTPALSALRSGDFRTVQKLARRALKLAKGDPGWLNLAAIAESGLGRPKAALPHFQLALKLAPDFHDARRNLAQTLVILGRLDEAERHLQQLTGTNPQDAEAWALLSQAAMGRGDGDAALAAADRYVDLRPGQARGLMLRATLHGRLGDEAAALADLQQAQMAEPDNVDLLIALSLPLARADHPGAAIDVARRAVELAPRHIPARLTLAMRHVEQGDSDAAKAMYHRVLEIAPDQAEALEQLAHLNDAAENQRLAPQVQTALKTAEAGSLDKAQLHFALARIAAQSADDDGLARNLTRANATMARLMPYDAGADTRLSEALMARFAPGADCDGPGDGPAPFYVLGLPRSGTSLTEAVLGAHPVVHPLGERIAPGRLLAPLIDGGLPFDAQARAAFRKGEAASLPALPEGTRFYTDKMPENYRLVGFLLAARGDARVIHLRRDPRDVALSLWQAHLAGSALNYAYDLGAMAHRFNLYARMMAHWRAIFPDRILDLPYEELVADVTRASQRLAEWLGLVWDPEMARPERSTSQILTLSASQLRQPVHTRSVGKWRKHEAMLAPFIAGLDPGLWPELGQSGI | failed
13 | MTLEIRPAVPADAEQILAFIIELADYERARHEVVTDVEGIRRSLFAEGSPTRALMCLSEGRPIGYAVYFYSYSTWLGRNGIYLEDLYVTPEYRGVGAGRRLLRELAREAVANDCGRLEWSVLDWNQPAIDFYRSIGALPQDEWVRYRLDGEALRKMAE | not failed
14 | MTLELLQAQAQNCTACRLMEGRTRVVFGEGNPDAKLMIVGEGPGEEEDKTGRPFVGKAGQLLNRILEAAGIPREEVYITNIVKCRPPQNRAPLPDEAKICTDKWLLKQIELIAPQIIVPLGAVAAEFFLGEKVSITKVRGKWYEWHGIKVFPMFHPAYLLRNPSRAPGSPKHLTWLDIQEVKRALDALPPKERRPVKAVSQEPLF | not failed
15 | MTLGSQHSPLFALVQETLRKRILSGAYAQGERLVEGDLAEEMGVSRIPVREALRALAAAGLVRIEPRRGASVASLSPEHARDIVEVRATLEALNARLAAQRRNPQQVADMDRAIRDGAHACERGDTAALVEQNRHFHELLGGVSTNAVLQDLMRSLRDRTALLFARNSVTRAADILDEHAGILQAVTAGDADLASLLAARHVHNAAQWYFERPVDRKAVAADTD | failed
16 | MTLPQTMKAAVVHAYGAPLRIEEVKVPLPGPGQVLVKIEASGVCHTDLHAAEGDWPVKPPLPFIPGHEGVGYVAAVGSGVTRVKEGDRVGIPWLYTACGCCEHCLTGWETLCESQQNTGYSVNGGYAEYVLADPNYVGILPKNVEFAEIAPILCAGVTVYKGLKQTNARPGQWVAISGIGGLGHVAVQYARAMGLHVAAIDIDDAKLELARKLGASLTVNARQEDPVEVLQRDIGGAHGVLVTAVSNSAFGQAIGMARRGGTIALVGLPPGDFPTPIFDVVLKGLHIAGSIVGTRADLQEALDFAGEGLVKATIHPGKLDDINQILDQMRAGQIEGRIVLEM | not failed
17 | MTLSIAHLGPPGTYAEQAAVLYVNWLTKSTGDEATLSPYPTISQSLHAVADGQAHLAVVPVENSIEGSVTTTLDALWQLDSLRIQLALVLPIVHTLISCASGLDKIETVYSHPQALAQCQGWLERFLPTVQIVPSNSTTEALQRLEQETTTAAIASSRAAQLYNLPILATGINDYPENCTRFWVVSQGEADAGYQTSKVPTSHTSLAFSMPANTPGALVKPLQIFAQLGINLSRIESRPTKRSLGEYLFFMDLEADVKESQMQSALAELTIHTEILKILGAYNVLPIGAFT | failed
18 | MTLSSTTAPLDQPIPQATADAFCALTGDDQWIHIDPARAEAEGLAGGDTVLPGALLLSLAVGGLGKALGYPEGTRSWQRSYERVRFLRPAPVGSRLRLEARESRRRPAGTGREVVVANVSLYSDLVEAGPVMEGCFTSLLEVAVQPDTAE | failed
19 | MTLSTINPMKKSRIDNIHHTQILFFSDENQIDQEAPYYDALLDLEKDYPEQIDKMKVYDKKEGWEDEIETVPTLMVVDQRHVVVKIEGCVKKKEDIIKPLQHVLSKLEHHHHHH | not failed
20 | MTLTDISLAQAFISIPQDVIALDLSNNLLGSKSCVDLLVNIADCIPAGVTSLDLSSNGLRLTQVSLVTPKHVTSLNLCFNPLHEISIDGLEWLKDSLAHIQIIYLSYDMVNNMSREQRQAFRAVIPNIQTIILVDKNGKEIGPSHTAKIANLISELGGGNPEVPSLEHHHHHH | failed
21 | MTLTKITAGKDDPDTGFAIATYNIHSCLGTDGAFRPDRVAQAIRALDADVIGLQEVGWALRGPSGFDQFAFLERETGYTVIPGLVRHHANAHFGNAILSRHPVESVAPLDLSLPYHSPRGGIDARIRVKGRSVRLINVHLGLIPLERRIQIRRIGLRLLDGWRGPALVCGDLNHWRRTSPAMQRLHRLLPGGVTGQTYPSALPTMMFDRILATGDLHLENHQVIRTEGTRVASDHLPLMAWFRFEGADVLSEDAA | failed
